# Reference: patent US20260216326A1 (PROMETHEUS BIOSCIENCES, published 2026)
# Changes are numbered by the printed parent chain. In names and notes the source's numbering stands.
# T1: recombinant TL1A antigen (UniProt O95150 72-251, limits assumed)
# T1 sequence (looked up): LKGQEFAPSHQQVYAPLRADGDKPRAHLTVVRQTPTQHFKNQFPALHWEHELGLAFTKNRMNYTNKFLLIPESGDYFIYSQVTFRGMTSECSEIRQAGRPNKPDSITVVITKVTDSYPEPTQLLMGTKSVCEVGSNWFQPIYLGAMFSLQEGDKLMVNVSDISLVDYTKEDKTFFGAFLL
# T2: human TL1A (human, UniProt O95150 72-251, limits assumed)
# T2 construct: also called tumor necrosis factor-like cytokine 1A; TNFSF15
# T2 sequence (looked up): T1 sequence (looked up)
# T3: TL1A in human blood (human, UniProt O95150 72-251, limits assumed)
# T3 sequence (looked up): T1 sequence (looked up)
# T4: DR3 (Death Receptor 3) natively expressed on human TF-1 cells (human, UniProt Q93038 25-417)
# T4 construct: whole, on cells; also called TNFRSF25
# T4 sequence (looked up): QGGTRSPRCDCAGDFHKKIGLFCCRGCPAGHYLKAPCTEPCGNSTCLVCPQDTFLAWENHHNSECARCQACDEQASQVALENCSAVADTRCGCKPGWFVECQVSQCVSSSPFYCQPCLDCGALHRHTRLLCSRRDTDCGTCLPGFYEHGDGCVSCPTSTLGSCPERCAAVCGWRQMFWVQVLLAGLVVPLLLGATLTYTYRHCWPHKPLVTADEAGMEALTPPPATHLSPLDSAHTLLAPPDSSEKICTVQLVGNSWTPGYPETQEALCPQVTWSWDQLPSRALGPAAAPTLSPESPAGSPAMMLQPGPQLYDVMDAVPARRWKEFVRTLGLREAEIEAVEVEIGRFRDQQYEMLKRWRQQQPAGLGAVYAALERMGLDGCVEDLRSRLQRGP
# B1: anti-TL1A antibody with heavy chain SEQ ID NO: 380 (IgG4, S228P, F234A, L235A; Fc SEQ ID NO: 367) and light chain SEQ ID NO: 381 (antibody)
# heavy: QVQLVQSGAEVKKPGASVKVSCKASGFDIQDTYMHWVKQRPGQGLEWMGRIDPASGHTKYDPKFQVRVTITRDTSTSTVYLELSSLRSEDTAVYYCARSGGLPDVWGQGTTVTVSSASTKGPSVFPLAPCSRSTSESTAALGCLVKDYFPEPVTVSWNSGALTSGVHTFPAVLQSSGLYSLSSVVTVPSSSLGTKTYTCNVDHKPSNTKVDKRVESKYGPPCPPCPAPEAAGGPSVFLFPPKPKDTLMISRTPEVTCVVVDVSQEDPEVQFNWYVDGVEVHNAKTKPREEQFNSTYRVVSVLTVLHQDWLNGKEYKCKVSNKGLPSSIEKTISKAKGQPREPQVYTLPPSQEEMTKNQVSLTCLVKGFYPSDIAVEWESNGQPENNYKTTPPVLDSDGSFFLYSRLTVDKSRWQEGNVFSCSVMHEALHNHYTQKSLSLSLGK
# light: EIVLTQSPGTLSLSPGERATLSCRASSSVSYMYWYQQKPGQAPRPLIYATSNLASGIPDRFSGSGSGTDFTLTISRLEPEDFAVYYCQQWEGNPRTFGGGTKLEIKRTVAAPSVFIFPPSDEQLKSGTASVVCLLNNFYPREAKVQWKVDNALQSGNSQESVTEQDSKDSTYSLSSTLTLSKADYEKHKVYACEVTHQGLSSPVTKSFNRGEC
# B2: A194 (antibody, IgG1, V domains shown)
# VH: EVQLVQSGAEVKKPGASVKVSCKASGFDIQDTYMHWVRQRPGQGLEWIGRIDPASGHTKYDPKFQVRATITTDTSTSTAYLELSSLRSEDTAVYYCARSGGLPDVWGQGTTVTVSS
# VL: EIVLTQSPGTLSLSPGERATLSCRASSSVSYMYWYQQKPGQAPRPWIYATSNLASGIPDRFSGSGSGTDFTLTISRLEPEDFAVYYCQQWEGNPRTFGGGTKLEIK
# B3: A147 (antibody, IgG1, V domains shown)
# VH: QVQLVQSGAEVKKPGASVKVSCKASGFDIQDTYMHWVKQRPGQGLEWMGRIEPASGHIKYDPKFQGRVTMTRDTSTSTVYMELSSLRSEDTAVYYCARSGGLPDWWGQGTTVTVSS
# VL: B2 VL with W46L
# B4: A204 (antibody, IgG1, V domains shown)
# VH: B3 VH with Q1E, K38R, R40A, V79A
# VL: B2 VL with W46L
# B5: A212 (antibody, IgG1, V domains shown)
# VH: B2 VH with E1Q
# VL: B2 VL with W46L
# B6: A201 (antibody, IgG1, V domains shown)
# VH: B3 VH with Q1E, K38R, R40A, V68A, M70I, R72T
# VL: B2 VL with W46L
# B7: A205 (antibody, IgG1, V domains shown)
# VH: B2 VH with R38K
# VL: B2 VL with P45L, W46L
# B8: A203 (antibody, IgG1, V domains shown)
# VH: B3 VH with Q1E, R40A
# VL: B2 VL with W46L
# B9: A200 (antibody, IgG1, V domains shown)
# VH: B2 VH
# VL: B2 VL with W46L
# B10: A206 (antibody, IgG1, V domains shown)
# VH: B2 VH
# VL: B2 VL with P45L, W46L
# B11: A222 (antibody, IgG1, V domains shown)
# VH: B2 VH with E1Q, R38K, I48M, A68V, T72R
# VL: B2 VL with W46L
# B12: A224 (antibody, IgG1, V domains shown)
# VH: B3 VH with Q1E, R40A
# VL: B2 VL with W46L
# B13: A209 (antibody, IgG1, V domains shown)
# VH: B3 VH with Q1E, R40A
# VL: B2 VL with P45L, W46L
# B14: A218 (antibody, IgG1, V domains shown)
# VH: B2 VH with E1Q, R38K, I48M, A68V, T72R, L81M
# VL: B2 VL with W46L
# B15: A213 (antibody, IgG1, V domains shown)
# VH: B2 VH with E1Q, I48M, A68V, A79V, L81M
# VL: B2 VL with W46L
# B16: A198 (antibody, IgG1, V domains shown)
# VH: B3 VH with Q1E, K38R, R40A, V79A
# VL: B2 VL
# B17: A211 (antibody, IgG1, V domains shown)
# VH: B2 VH with E1Q, R38K
# VL: B2 VL with W46L
# B18: A202 (antibody, IgG1, V domains shown)
# VH: B3 VH with Q1E, K38R, R40A, V68A
# VL: B2 VL with W46L
# B19: A195 (antibody, IgG1, V domains shown)
# VH: B3 VH with Q1E, K38R, R40A, V68A, M70I, R72T
# VL: B2 VL
# B20: A199 (antibody, IgG1, V domains shown)
# VH: B2 VH with R38K
# VL: B2 VL with W46L
# B21: A217 (antibody, IgG1, V domains shown)
# VH: B3 VH with E52D, I58T, G66V, M70I, W105V
# VL: B2 VL with W46L
# B22: A223 (antibody, IgG1, V domains shown)
# VH: B2 VH
# VL: B2 VL with P45L, W46L
# B23: A196 (antibody, IgG1, V domains shown)
# VH: B3 VH with Q1E, K38R, R40A, V68A
# VL: B2 VL
# B24: A216 (antibody, IgG1, V domains shown)
# VH: B2 VH with E1Q, A68V, T72R
# VL: B2 VL with W46L
# B25: A214 (antibody, IgG1, V domains shown)
# VH: B2 VH with E1Q, I48M, A68V, T72R
# VL: B2 VL with W46L
# B26: A197 (antibody, IgG1, V domains shown)
# VH: B3 VH with Q1E, R40A
# VL: B2 VL
# B27: A215 (antibody, IgG1, V domains shown)
# VH: B2 VH with E1Q, I48M, A68V
# VL: B2 VL with W46L
# B28: A220 (antibody, IgG1, V domains shown)
# VH: B2 VH with E1Q, R38K, I48M, A68V, I70M, T72R
# VL: B2 VL
# B29: A210 (antibody, IgG1, V domains shown)
# VH: B3 VH with Q1E, K38R, R40A, V79A
# VL: B2 VL with P45L, W46L
# B30: recombinant human TL1A protein (tumor necrosis factor-like cytokine 1A) (ligand, UniProt O95150 72-251, looked up)
# chain: T1 sequence (looked up)
# notes: Recombinant protein used in ELISA, SPR and the TF-1 caspase assay; also called TNFSF15; soluble TL1A
# Tests used:
# recombinant TL1A antigen = biological target: T1, recombinant TL1A antigen; assay: ELISA titration against recombinant TL1A antigen
# human TL1A = biological target: T2, human TL1A; assay: ELISA titration on plate-coated human TL1A, unpurified culture supernatant
# TL1A in human blood [1] = biological target: T3, TL1A in human blood; assay: cell-based or functional assay
# TL1A in human blood [2] = biological target: T3, TL1A in human blood; assay: cell-based or functional assay; remark: listed apart in the source
# [3] = biological target: T4, DR3 (Death Receptor 3) natively …; assay: TF-1 cell caspase activation assay
# Source text: TF-1 cells are human erythroleukemic cells that natively express DR3, the functional receptor for TL1A.
Binder,Kd (human TL1A),other results
B1,–,EC50 (recombinant TL1A antigen): 0.252 nM
B2,0.051 nM,–
B3,–,% Inhibition at 1 nM Ig; interferon gamma release in human blood (TL1A in human blood [1]): 51.3%; % Inhibition at 10 nM Ig; interferon gamma release in human blood (TL1A in human blood [1]): 72.4%
B4,0.053 nM,–
B5,0.05 nM,"% Inhibition at 1 nM Ig; interferon gamma release in human blood (TL1A in human blood [1]): 46.8%; % Inhibition at 10 nM Ig; interferon gamma release in human blood (TL1A in human blood [1]): 71.2%; IC50 values, Mean; inhibition of interferon gamma release from multiple human donors (TL1A in human blood [2]): 51.3"
B6,0.058 nM,–
B7,0.055 nM,–
B8,0.062 nM,–
B9,0.052 nM,–
B10,0.05 nM,–
B11,0.06 nM,–
B12,0.076 nM,–
B13,0.058 nM,–
B14,0.051 nM,–
B15,0.049 nM,"% Inhibition at 1 nM Ig; interferon gamma release in human blood (TL1A in human blood [1]): 48.6%; % Inhibition at 10 nM Ig; interferon gamma release in human blood (TL1A in human blood [1]): 69.8%; IC50 values, Mean; inhibition of interferon gamma release from multiple human donors (TL1A in human blood [2]): 46.8"
B16,0.053 nM,–
B17,0.058 nM,–
B18,0.059 nM,–
B19,0.056 nM,–
B20,0.05 nM,–
B21,0.043 nM,% Inhibition at 1 nM Ig; interferon gamma release in human blood (TL1A in human blood [1]): 46%; % Inhibition at 10 nM Ig; interferon gamma release in human blood (TL1A in human blood [1]): 72.2%
B22,0.062 nM,–
B23,0.054 nM,–
B24,0.049 nM,–
B25,0.051 nM,–
B26,0.054 nM,–
B27,0.048 nM,–
B28,0.05 nM,% Inhibition at 1 nM Ig; interferon gamma release in human blood (TL1A in human blood [1]): 36.9%; % Inhibition at 10 nM Ig; interferon gamma release in human blood (TL1A in human blood [1]): 63.2%
B29,0.07 nM,–
B30,–,binding result [3]: binds
